Measured values from patent US10202593B2, “Evolved sortases and uses thereof” (President and Fellows of Harvard College, priority 2013, dated 2019).
Where a chain is given by its changes, count along the chain named. Numbers in names are those of the source.

B1: eSrtA(2A-9): P94R, S102C, A104H, E105D, K138P, K152I, N160K, K162H, T164N, D165A, K173E, I182V, K190E, T196S (protein)
chain: QAKPQIPKDKSKVAGYIEIPDADIKEPVYPGPATREQLNRGVCFHDENESLDDQNISIAGHTFIDRPNYQFTNLKAAKPGSMVYFKVGNETRIYKMTSIRKVHPNAVEVLDEQEGKDKQLTLVTCDDYNEETGVWESRKIFVATEVK
B2: eSrtA (protein)
chain: QAKPQIPKDKSKVAGYIEIPDADIKEPVYPGPATREQLNRGVSFAEENESLDDQNISIAGHTFIDRPNYQFTNLKAAKKGSMVYFKVGNETRKYKMTSIRNVKPTAVEVLDEQKGKDKQLTLITCDDYNEETGVWETRKIFVATEVK
B3: eSrtA(4S-9): P94R, N98D, S102C, A104V, A118T, F122A, K134R, F144L, D160N, D165A, I182V, E189F, K190E, K196T (protein)
chain: B2 chain with N39D, S43C, A45V, A59T, F63A, K75R, F85L, I123V, E130F

Legend:
[1] = Differential scanning fluorimetry for thermal melting curves; assay type: physicochemical
Description: FIGS. 25A-C show thermal melting curves for eSrtA variants. Each protein was freshly expressed and purified, then diluted to 40 μM in 100 mM Tris pH 7.5, 500 mM NaCl. Differential scanning fluorimetry was performed using the Life Technologies Protein Thermal Shift™ Dye kit according to manufacturers' instructions. Thermal scanning was performed on Biorad CFX96-Real Time PCR (25° C. to 99° C., 0.2° C./2s increments). To calculate Tm, fluorescence intensity was fit to the Boltzmann equation using Microsoft Excel using the Solver add-in. Melting curves were plotted with best-fit fluorescence intensities that were normalized to maximum fluorescence intensity. Tm values are shown with their standard deviations as determined from three technical replicates.
To determine thermal stability of eSrtA, eSrtA(2A-9), eSrtA(4S-9), and variants thereof, each protein was freshly expressed and purified, then diluted to 40 μM in 100 mM Tris pH 7.5, 500 mM NaCl. Differential scanning fluorimetry was performed using the Life Technologies Protein Thermal Shift™ Dye kit according to manufacturers' instructions. […] To calculate Tm, fluorescence intensity was fit to the Boltzmann equation using Microsoft Excel using the Solver add-in. Melting curves were plotted with best-fit fluorescence intensities that were normalized to maximum fluorescence intensity.

[2] = system: SUMO-TEV site-FGF1-LPESG-His6; test: FGF dual labeling / circularization of GGG-FGF-LPESG; assay type: biochemical; conditions: 0.2 eq enzyme, 10 or 100 μM Btn-LAETG, 4 hours
Description: SUMO-TEV site-FGF1-LPESG-His6 (SEQ ID NO: 27), 0.5 eq TEV protease, and either 0.2 eq eSrtA or eSrtA(2A-9) were incubated in the presence of 10 or 100 μM Btn-LAETG (SEQ ID NO: 5) for 4 hours. The protein contains a GGG near its N-terminus masked by a TEV protease cleavage site, and a LPESG (SEQ ID NO: 3) near its C-terminus to serve as a substrate for downstream conjugation. In situ digestion of the TEV cleavage site exposes an N-terminal GGG, which in theory can serve as the substrate for subsequent conjugation with an LAETG-containing peptide (SEQ ID NO: 5). […] His6: SEQ ID NO: 6.
SUMO-TEV-FGF-LPESG-His6 (SEQ ID NO: 27) conjugates were treated with 0.2 eq eSrtA(4S-9), 1 mM GGG-PEG and 10 mM CaCl2 in TBS and incubated at room temperature at 500 μL final volumes. These samples were then quenched by the addition of 100 μM H2N-LPESGG (SEQ ID NO: 38) peptide and 100 μL of pre-equilibrated Ni-NTA resin slurry in TBS, then incubated on ice for 15 minutes. This mixture was then passed through a 0.2 μm spin filter, diluted 1:10 into PBS+10 μM H2N-LPESGG (SEQ ID NO: 38) peptide, and concentrated against a 10 kDa MWCO spin concentrator to a final volume of 400 μL. This process was repeated five times to afford the crude SUMO-TEV-FGF-LPESGGG-PEG (SEQ ID NO: 39) conjugates. […] Protein concentrations were determined by BCA assay. […]

| Molecule | ΔTm compared to eSrtA [1] | circularization of GGG-FGF-LPESG [2] |
| --- | --- | --- |
| B1 | ~4.4 °C | does not generate detectable levels of circularized GGG-FGF protein |
| B2 | – | resulting in circularization |
| B3 | ~4.4 °C | – |
